Changes are numbered by the printed parent chain.
B1: GTGCAC_site10675 (dsDNA)
DNA 1: GTAGTTATATTAAGGGTGCTTAATTAGATTAAACAA
DNA 2: TTGTTTAATCTAATTAAGCACCCTTAATATAACTAC
B2: GTGCAC_site9543 (dsDNA)
DNA 1: CAATATTTGTTATGGGTGCAAACCGCATATATATAA
DNA 2: TTATATATATGCGGTTTGCACCCATAACAAATATTG
B3: GTGCAC_site9428 (dsDNA)
DNA 1: B2 DNA 1 with C1A, T6G, G25A
DNA 2: B2 DNA 2 with C12T, A31C, G36T
B4: GTGCAC_site10474 (dsDNA)
DNA 1: TTTTTTGTTACAACAGTGCAAAAAAACCTTAATGTT
DNA 2: AACATTAAGGTTTTTTTGCACTGTTGTAACAAAAAA
B5: GTGCAC_site10240 (dsDNA)
DNA 1: CTTTTAGAATAATCAGTGCAAAAAAAAAAAAAAAAA
DNA 2: TTTTTTTTTTTTTTTTTGCACTGATTATTCTAAAAG
B6: GTGCAC_site9467 (dsDNA)
DNA 1: AAATAATGAAACAAAGTGCATAAAAATATACATATA
DNA 2: TATATGTATATTTTTATGCACTTTGTTTCATTATTT
B7: GTGCAC_site10220 (dsDNA)
DNA 1: CATATAAAAAATATGGTGCAGTTTTTTTTTTTTTTT
DNA 2: AAAAAAAAAAAAAAACTGCACCATATTTTTTATATG
B8: GTGCAC_site9779 (dsDNA)
DNA 1: TTTTGTTATAATAAAGTGCATTTAGTCGGGTTACAA
DNA 2: TTGTAACCCGACTAAATGCACTTTATTATAACAAAA
B9: GTGCAC_site10398 (dsDNA)
DNA 1: AAATACTTATTCGTGGTGCAACAATTTTAAAAATTA
DNA 2: TAATTTTTAAAATTGTTGCACCACGAATAAGTATTT
B10: GTGCAC_site10006 (dsDNA)
DNA 1: ATATATTAACAAAAGGTGCTTTTGGCAAAGTATAAT
DNA 2: ATTATACTTTGCCAAAAGCACCTTTTGTTAATATAT
B11: GTGCAC_site10708 (dsDNA)
DNA 1: TTCTAAAATTATATAGTGCAATTATATTAATTTTTC
DNA 2: GAAAAATTAATATAATTGCACTATATAATTTTAGAA
B12: GTGCAC_site9494 (dsDNA)
DNA 1: TTGTTTTTAATATCGGTGCAATGGAAAGAAAAGAAG
DNA 2: CTTCTTTTCTTTCCATTGCACCGATATTAAAAACAA
B13: GTGCAC_site9816 (dsDNA)
DNA 1: AAGACATTTTTTAAGGTGCTTTGGAAAAAGGAGTAT
DNA 2: ATACTCCTTTTTCCAAAGCACCTTAAAAAATGTCTT
B14: GTGCAC_site9756 (dsDNA)
DNA 1: TACTTATTTAAAATAGTGCATGAATAGAAGATATAT
DNA 2: ATATATCTTCTATTCATGCACTATTTTAAATAAGTA
B15: GTGCAC_site10541 (dsDNA)
DNA 1: TTCAAATAAATAGTAGTGCATATTTATTAATGTAAA
DNA 2: TTTACATTAATAAATATGCACTACTATTTATTTGAA
B16: GTGCAC_site9560 (dsDNA)
DNA 1: ATACATCGTATATAAGTGCATATTAAGGTCTTAAGA
DNA 2: TCTTAAGACCTTAATATGCACTTATATACGATGTAT
B17: GTGCAC_site9681 (dsDNA)
DNA 1: ACTACGAATGGTAGAGTGCAGTCTGGAGAAAAGTAC
DNA 2: GTACTTTTCTCCAGACTGCACTCTACCATTCGTAGT
B18: GTGCAC_site9626 (dsDNA)
DNA 1: TTTATTAATAAAAAGGTGCAATCAGGAAAAATTATC
DNA 2: GATAATTTTTCCTGATTGCACCTTTTTATTAATAAA
B19: GTGCAC_site9563 (dsDNA)
DNA 1: AAAATAATCTTTTGATTGCACTGTTACATTTTTTCT
DNA 2: AGAAAAAATGTAACAGTGCAATCAAAAGATTATTTT
B20: GTGCAC_site10115 (dsDNA)
DNA 1: TTTGTTTGTAAAATGTTGCACTTTCTTTTGCTGATA
DNA 2: TATCAGCAAAAGAAAGTGCAACATTTTACAAACAAA
B21: GTGCAC_site10469 (dsDNA)
DNA 1: ATTTTCACCTGAACGGTGCATATTTAATTTTAGGTT
DNA 2: AACCTAAAATTAAATATGCACCGTTCAGGTGAAAAT
B22: GTGCAC_site9605 (dsDNA)
DNA 1: AAGGGAAAAATATGGTTGCACTAAAAATATGTAATT
DNA 2: AATTACATATTTTTAGTGCAACCATATTTTTCCCTT
B23: GTGCAC_site10026 (dsDNA)
DNA 1: ATATAAGTATTTTGAATGCACTTTCTTTTTTTTTTT
DNA 2: AAAAAAAAAAAGAAAGTGCATTCAAAATACTTATAT
B24: GTGCAC_site9423 (dsDNA)
DNA 1: ACACATACACATTAGGTGCATATATTTCAATATTAC
DNA 2: GTAATATTGAAATATATGCACCTAATGTGTATGTGT
B25: GTGCAC_site10046 (dsDNA)
DNA 1: TTTTTGTTATATAAAGTGCAGTGACAAGCAGTTTAA
DNA 2: TTAAACTGCTTGTCACTGCACTTTATATAACAAAAA
B26: GTGCAC_site9508 (dsDNA)
DNA 1: TAATAAAAAGTTGAGGTGCATATAGAGTTCTTCTTT
DNA 2: AAAGAAGAACTCTATATGCACCTCAACTTTTTATTA
B27: GTGCAC_site10715 (dsDNA)
DNA 1: TTTTTGTAACCGATTCTGCACTGAGAAGCACATATA
DNA 2: TATATGTGCTTCTCAGTGCAGAATCGGTTACAAAAA
B28: GTGCAC_site10497 (dsDNA)
DNA 1: AAAAAAAAAAAATGTGTGCACATTATTTCAACTTAA
DNA 2: TTAAGTTGAAATAATGTGCACACATTTTTTTTTTTT
B29: GTGCAC_site9514 (dsDNA)
DNA 1: GTAGGATTTTCTTTTGTGCGCAATATAAAAAGAAAA
DNA 2: TTTTCTTTTTATATTGCGCACAAAAGAAAATCCTAC
B30: GTGCAC_site9771 (dsDNA)
DNA 1: GTACGTTTCTCCAGACTGCACTATACGACTCGTACA
DNA 2: TGTACGAGTCGTATAGTGCAGTCTGGAGAAACGTAC
B31: GTGCAC_site9782 (dsDNA)
DNA 1: AAAATATAAATTCATGTGCACATATATATTTTGTTA
DNA 2: TAACAAAATATATATGTGCACATGAATTTATATTTT
B32: GTGCAC_site10217 (dsDNA)
DNA 1: ATATATTTTTGTAGTGTGCACGTTTATATGGTGAAA
DNA 2: TTTCACCATATAAACGTGCACACTACAAAAATATAT
B33: GTGCAC_site10268 (dsDNA)
DNA 1: TTTTTTGTTATTGGCGTGCACATATCCATTTATAGT
DNA 2: ACTATAAATGGATATGTGCACGCCAATAACAAAAAA
B34: GTGCAC_site10317 (dsDNA)
DNA 1: TTATATTTTCTCCGCGTGCACATATGTATACTATAC
DNA 2: GTATAGTATACATATGTGCACGCGGAGAAAATATAA
B35: GTGCAC_site10283 (dsDNA)
DNA 1: AAAATAATTTTATAAGTGCAAAATAGCTTATTTATA
DNA 2: TATAAATAAGCTATTTTGCACTTATAAAATTATTTT
B36: GTGCAC_site10615 (dsDNA)
DNA 1: ATTTTTTTTGTAAAAGTGCATATATATATATATATA
DNA 2: TATATATATATATATATGCACTTTTACAAAAAAAAT
B37: GTGCAC_site9648 (dsDNA)
DNA 1: ATAATTTCACAAATAGTGCAAAAATTAGTAAGAATA
DNA 2: TATTCTTACTAATTTTTGCACTATTTGTGAAATTAT
B38: GTGCAC_site9414 (dsDNA)
DNA 1: TTAAATATTTTTAGAGTGCATGTAATAAAAATATAA
DNA 2: TTATATTTTTATTACATGCACTCTAAAAATATTTAA
B39: GTGCAC_site10565 (dsDNA)
DNA 1: AAAAAAGAACGCATAGTGCATATCTAAAAGATTTTT
DNA 2: AAAAATCTTTTAGATATGCACTATGCGTTCTTTTTT
B40: GTGCAC_site10324 (dsDNA)
DNA 1: TTGTTTTATTATTCGATGCACTACAGAAATATATTC
DNA 2: GAATATATTTCTGTAGTGCATCGAATAATAAAACAA
B41: GTGCAC_site10309 (dsDNA)
DNA 1: GTTAATTTTTGTATAGTGCAAAAATATAATAGTATG
DNA 2: CATACTATTATATTTTTGCACTATACAAAAATTAAC
B42: GTGCAC_site10402 (dsDNA)
DNA 1: TTACACATGTATTTGGTGCATGTTGTTAACAAAATA
DNA 2: TATTTTGTTAACAACATGCACCAAATACATGTGTAA
B43: GTGCAC_site10638 (dsDNA)
DNA 1: TAATATAATGATGCAGTGCATATGTTAAAATGAAAA
DNA 2: TTTTCATTTTAACATATGCACTGCATCATTATATTA
B44: GTGCAC_site9741 (dsDNA)
DNA 1: ATTCATATTTTTCAAGTGCGCATTAAAATATTAACC
DNA 2: GGTTAATATTTTAATGCGCACTTGAAAAATATGAAT

Biological target: AP2-I D3 (Plasmodium falciparum, UniProt Q8IJW6 910-1027)
Test: gcPBM; about 25 ug protein; PBS, 1% milk, 0.2 mg/ml BSA, salmon testes DNA, 0.03% Triton X-100
Conditions: tags: N-terminal GST (pGEX-4T-1), kept; label: surface-attached array probe

Binder	binding signal
B1	10.8 ln median PBM intensity, better of two orientations
B2	10.3 ln median PBM intensity, better of two orientations
B3	10.2 ln median PBM intensity, better of two orientations
B4	10.2 ln median PBM intensity, better of two orientations
B5	10.1 ln median PBM intensity, better of two orientations
B6	10.6 ln median PBM intensity, better of two orientations
B7	10.3 ln median PBM intensity, better of two orientations
B8	10.4 ln median PBM intensity, better of two orientations
B9	10.4 ln median PBM intensity, better of two orientations
B10	9.45 ln median PBM intensity, better of two orientations
B11	9.54 ln median PBM intensity, better of two orientations
B12	10.2 ln median PBM intensity, better of two orientations
B13	9.5 ln median PBM intensity, better of two orientations
B14	9.47 ln median PBM intensity, better of two orientations
B15	9.69 ln median PBM intensity, better of two orientations
B16	9.59 ln median PBM intensity, better of two orientations
B17	9.19 ln median PBM intensity, better of two orientations
B18	10.7 ln median PBM intensity, better of two orientations
B19	9.41 ln median PBM intensity, better of two orientations
B20	9.33 ln median PBM intensity, better of two orientations
B21	10 ln median PBM intensity, better of two orientations
B22	9.25 ln median PBM intensity, better of two orientations

Binder	binding signal
B23	10.5 ln median PBM intensity, better of two orientations
B24	10.6 ln median PBM intensity, better of two orientations
B25	9.65 ln median PBM intensity, better of two orientations
B26	10.5 ln median PBM intensity, better of two orientations
B27	9.57 ln median PBM intensity, better of two orientations
B28	9.36 ln median PBM intensity, better of two orientations
B29	9.23 ln median PBM intensity, better of two orientations
B30	9.61 ln median PBM intensity, better of two orientations
B31	9.03 ln median PBM intensity, better of two orientations
B32	10.5 ln median PBM intensity, better of two orientations
B33	10.4 ln median PBM intensity, better of two orientations
B34	10.2 ln median PBM intensity, better of two orientations
B35	9.62 ln median PBM intensity, better of two orientations
B36	10.5 ln median PBM intensity, better of two orientations
B37	10.3 ln median PBM intensity, better of two orientations
B38	9.27 ln median PBM intensity, better of two orientations
B39	9.16 ln median PBM intensity, better of two orientations
B40	9.21 ln median PBM intensity, better of two orientations
B41	10.6 ln median PBM intensity, better of two orientations
B42	9.49 ln median PBM intensity, better of two orientations
B43	9.15 ln median PBM intensity, better of two orientations
B44	9.34 ln median PBM intensity, better of two orientations

Reference: PMC11417369, “DNA sequence and chromatin differentiate sequence-specific transcription factor binding in the human malaria parasite Plasmodium falciparum”
